Source: article PMC8564726, “Heterodimerization of H3K9 histone methyltransferases G9a and GLP activates methyl reading and writing capabilities” (The Journal of Biological Chemistry, 2021)
Like-named read-outs stand apart in the source and are kept apart here.

B1: GLP-GLP: homodimer of GLP truncated to the C-terminal ANK and SET domains (ANK-SET) (protein)
chain: MAAADAEQAVLAKQETKQDCCMKTELLREDTPMAADEGSTEKQEGETPMAADGETNGSCEKSGDPSHLNAPKHTQENTRASPQEGTNRVSRVAENGVSERDTEVGKQNHVTADDFMQTSVIGSNGYFLNKPALQGQPLRTPNILTSSLPGHAAKTLPGGASKCRTLSALPQTPTTAPTVPGEGSADTEDRKPTASGTDVRVHRARKTMPKSILGLHAASKDHREVQDHKEPKEDINRNISECGRQQLLPTFPALHQSLPQNQCYMATTKSQTACLPFVLAAAVSRKKKRRMGTYSLVPKKKTKVLKQRTVIEMFKSITHSTVGAKGEKALDDSALHVNGESLEMDSEDEDSDELEDDEDHGAEQAAAFPTEDSRTSKESMSETDRAAKMDGDSEEEQESPDTGEDEDGGDESDLSSESSIKKKFLKRRGKTDSPWIKPARKRRRRSRKKPSSMLGSEACKSSPGSMEQAALGDSAGYMEVSLDSLDLRVRGILSSQTENEGLASGPDVLGTDGLQEVPLCSCRMETPKSREISTLANNQCMATESVDHELGRCTNSVVKYELMRPSNKAPLLVLCEDHRGRMVKHQCCPGCGYFCTAGNFMECQPESSISHRFHKDCASRVNNASYCPHCGEEASKAKEVTIAKADTTSTVTLAPGQEKSLAAEGRADTTTGSIAGAPEDERSQSTAPQAPECFDPAGPAGLVRPTSGLSQGPGKETLESALIALDSEKPKKLRFHPKQLYFSARQGELQKVLLMLVDGIDPNFKMEHQSKRSPLHAAAEAGHVDICHMLVQAGANIDTCSEDQRTPLMEAAENNHLDAVKYLIKAGAQVDPKDAEGSTCLHLAAKKGHYDVVQYLLSNGQMDVNCQDDGGWTPMIWATEYKHVELVKLLLSKGSDINIRDNEENICLHWAAFSGCVDIAEILLAAKCDLHAVNIHGDSPLHIAARENRYDCVVLFLSRDSDVTLKNKEGETPLQCASLSSQVWSALQMSKALRDSAPDKPVAVEKTVSRDIARGYERIPIPCVNAVDSELCPTNYKYVSQNCVTSPMNIDRNITHLQYCVCVDDCSSSTCMCGQLSMRCWYDKDGRLLPEFNMAEPPLIFECNHACSCWRNCRNRVVQNGLRARLQLYRTQDMGWGVRSLQDIPLGTFVCEYVGELISDSEADVREEDSYLFDLDNKDGEVYCIDARFYGNVSRFINHHCEPNLVPVRVFMSHQDLRFPRIAFFSTRLIQAGEQLGFDYGERFWDVKGKLFSCRCGSSKCRHSSAALAQRQASAAQEPQENGLPDTSSAAAADPL
B2: full-length G9a: E. coli expressed MBP:FL-G9a (protein)
chain: MRGLPRGRGLMRARGRGRAAPTGGRGRGRGGAHRGRGRPRSLLSLPRAQASWAPQLPAGLTGPPVPCLPSQGEAPAEMGALLLEKEPRGAAERVHSSLGDTPQSEETLPKANPDSLEPAGPSSPASVTVTVGDEGADTPVGAASLIGDEPESLEGDGGRIVLGHATKSFPSSPSKGGACPSRAKMSMTGAGKSPPSVQSLAMRLLSMPGAQGAATAGPEPSPATTAAQEGQPKVHRARKTMSKPSNGQPPIPEKRPPEVQHFRMSDDMHLGKVTSDVAKRRKLNSGSLSEDLGSAGGSGDIILEKGEPRPLEEWETVVGDDFSLYYDAYSVDERVDSDSKSEVEALAEQLSEEEEEEEEEEEEEEEEEEEEEEEEEDEESGNQSDRSGSSGRRKAKKKWRKDSPWVKPSRKRRKREPPRAKEPRGVNGVGSSGPSEYMEVPLGSLELPSEGTLSPNHAGVSNDTSSLETERGFEELPLCSCRMEAPKIDRISERAGHKCMATESVDGELLGCNAAILKRETMRPSSRVALMVLCEAHRARMVKHHCCPGCGYFCTAGTFLECHPDFRVAHRFHKACVSQLNGMVFCPHCGEDASEAQEVTIPRGDGGTPPIGTAAPALPPLAHDAPGRADTSQPSARMRGHGEPRRPPCDPLADTIDSSGPSLTLPNGGCLSAVGLPPGPGREALEKALVIQESERRKKLRFHPRQLYLSVKQGELQKVILMLLDNLDPNFQSDQQSKRTPLHAAAQKGSVEICHVLLQAGANINAVDKQQRTPLMEAVVNNHLEVARYMVQLGGCVYSKEEDGSTCLHHAAKIGNLEMVSLLLSTGQVDVNAQDSGGWTPIIWAAEHKHIDVIRMLLTRGADVTLTDNEENICLHWASFTGSAAIAEVLLNAQCDLHAVNYHGDTPLHIAARESYHDCVLLFLSRGANPELRNKEGDTAWDLTPERSDVWFALQLNRKLRLGVGNRAVRTEKIICRDVARGYENVPIPCVNGVDGEPCPEDYKYISENCETSTMNIDRNITHLQHCTCVDDCSSSNCLCGQLSIRCWYDKDGRLLQEFNKIEPPLIFECNQACSCWRSCKNRVVQSGIKVRLQLYRTAKMGWGVRALQTIPQGTFICEYVGELISDAEADVREDDSYLFDLDNKDGEVYCIDARYYGNISRFINHLCDPNIIPVRVFMLHQDLRFPRIAFFSSRDIRTGEELGFDYGDRFWDIKSKYFTCQCGSEKCKHSAEAIALEQSRLARLDPHPELLPDLSSLPPINT

What was measured:
[1] = tested on: H3_1–20 K9me1 peptide; experiment: Fluorescence polarization binding to H3K9me1 peptide
Procedure: (§1) Polarization assays with fluoresceinated H3_1–20 K9me1 or K9me2 peptides, 147 bp 601 DNA template, and core nucleosomes were performed and Kd values estimated as described ([11]) with the following modifications: The reaction buffer was 100 mM Tris pH 8, 100 mM KCl, 1 mM MgCl2, 20 μM ZnSO4, 10 mM BME, 0.1% NP-40. The concentration of peptides and nucleosomes was 150 nM and 200 nM for DNA. Polarization measurements were conducted on a Biotek Cytation 5 (peptide and nucleosome) or Molecular Devices Spectramax (DNA) plate reader with low-volume plates (Corning) in either 10 μl (peptide, nucleosome) or 40 μl (DNA) total volume.

[2] = tested on: H3_1–20 K9me2 peptide; experiment: Fluorescence polarization binding to H3K9me2 peptide
Procedure: as §1

[3] = tested on: unmethylated (H3K9me0) mononucleosomes; experiment: Fluorescence polarization binding to unmethylated mononucleosome
Excerpt: (§2) Histone proteins and nucleosomes were purified as described ([11], [26]) with modifications (see Supporting methods). For fluorescence polarization, nucleosomes were reconstituted with a 5ʹ fluoresceinated DNA template. H3K9 dimethylation was installed via Methyl-Lysine Analog (MLA) technology as described ([10], [26]). K9 MLA-monomethylated H3 was purchased from Active Motif. H3K27A was introduced by site-directed mutagenesis and purified as described ([26]).
as §1

[4] = tested on: H3K9me1 monomethylated mononucleosomes; experiment: Fluorescence polarization binding to H3K9me1 mononucleosome
Excerpt: as §2, §1

[5] = tested on: H3_1–20 peptide; experiment: H3 tail peptide methylation kinetics (multiple turnover); format: biochemical; details: Michaelis–Menten, 9 μM 3H-SAM + 1000 μM cold SAM, 0.4 to 0.8 μM enzyme, pH 8, duplicates, 95% CI: G9a-G9a 24.6-34.6, GLP-GLP 9.5-15.5, G9a-GLP 26.0-34.5, G9aS-GLP 20.5-28.3, listed as GLP
Procedure: (§3) Substrate peptides or nucleosomes were mixed in a solution containing 9 μM tritiated S-Adenosyl Methionine (SAM, PerkinElmer) cofactor, and reactions were initiated upon addition of 0.4 to 0.8 μM enzyme. Peptide reactions were supplemented with 1000 μM cold SAM to fully saturate the SAM-binding pocket (Fig. S3). Due to signal limitations, nucleosome reactions were not supplemented with SAM (see Supporting methods). Reactions were run in 100 mM Tris pH 8, 100 mM KCl, 1 mM MgCl2, 20 μM ZnSO4, 10 mM BME and quenched with laemmli buffer. Peptide reactions were performed as described ([11]). Nucleosome methylation reactions were read out via autoradiography as described ([11]), except that proteins were separated on an 18% SDS PAGE gel.
All methylation reactions (except Fig. S4A) were performed under Multiple Turnover conditions ([25]). To determine initial rates, methylation time courses were traced at various concentrations of H3K9-containing substrate while keeping the concentration of SAM and enzyme constant. Plots of initial rate versus concentration H3K9 substrate measured in duplicate or triplicate were fit to V = Vmax∗[S]/(KM + [S]) using Prism software to extract KM and kcat (or kobs) values as well as the 95% confidence interval bounds of the fit. See Supporting methods for special considerations for nucleosome kinetics.

[6] = tested on: mononucleosome (core nucleosome); experiment: Mononucleosome methylation kinetics (multiple turnover); format: biochemical; details: initial rates, 10 μM histone tails (Fig. 3F)
Excerpt: as §2
Substrate peptides or nucleosomes were mixed in a solution containing 9 μM tritiated S-Adenosyl Methionine (SAM, PerkinElmer) cofactor, and reactions were initiated upon addition of 0.4 to 0.8 μM enzyme. Peptide reactions were supplemented with 1000 μM cold SAM to fully saturate the SAM-binding pocket (Fig. S3). […] Nucleosome methylation reactions were read out via autoradiography as described ([11]), except that proteins were separated on an 18% SDS PAGE gel. […]
(§4) Detailed E. coli protein expression, purification, and tag cleavage methods Cells co- expressing His and MBP constructs were lysed on ice via sonication in lysis buffer (100mM Tris pH 8, 300mM NaCl, 10% glycerol (v/v), 0.1% Tween-20, with freshly added 1mM β-mercaptoethanol (BME), 1mM PMSF, 5mM Benzamidine, 200µM Leupeptin, Aproptinin, Pepstatin, Phenantroline). […] All protein constructs were quantified using SDS page with BSA standards and Sypro Red stain. […]

[7] = tested on: 10-nucleosome arrays; experiment: Nucleosome array methylation, initial rate; format: biochemical; details: 2 μM histone tails, nonsaturating (Fig. 3H)
Procedure: as §3
All methylation reactions (except Fig. S4A) were performed under Multiple Turnover conditions ([25]). […]
as §4

Molecule	affinity for H3K9me1 peptide, in words [1]	affinity for H3K9me1 peptide, in words ([1]; listed as GLP)	reduced binding to me2 peptides (fold) ([2]; GLP ANK-SET homodimer, reduction as worded (reference me1 binding or ANK alone not stated))	binding to nucleosomes, in words [3]	Kd ([3]; 147 bp 601 DNA 5ʹ fluorescein-labeled nucleosomes, 150 nM, pH 8, 100 mM KCl, 0.1% NP-40, 95% CI (μM): G9a 6.4-8.6, G9a-GLP 5.6-7.6, GLP-GLP 17.4-41.5, read-out: Kd, unmethylated (me0) mononucleosome)	binding to H3K9me1 nucleosomes, in words [4]	kcat, H3_1–20 peptide [5]	activity on mononucleosomes near saturation, in words [6]	initial rate on nucleosome arrays, in words [7]	affinity for H3K9me2 peptide, in words [2]
B1	can recognize H3K9me1	binds H3K9me1 peptides tightly	12.5 times	binds poorly to nucleosomes	26.3 µM	binds relatively tightly to H3K9me1	~0.233 s⁻¹	slowest of the three enzyme constructs	slowest	–
B2	no discernable affinity for me1 or me2 peptides	–	–	–	–	–	–	–	–	no discernable affinity for me1 or me2 peptides
